Target: p85, the regulatory subunit of PI3-kinase (mouse (endogenous in NIH3T3)) (UniProt P26450)
Assay: co-IP

UniProt P26450, sequence (P26450 whole entry): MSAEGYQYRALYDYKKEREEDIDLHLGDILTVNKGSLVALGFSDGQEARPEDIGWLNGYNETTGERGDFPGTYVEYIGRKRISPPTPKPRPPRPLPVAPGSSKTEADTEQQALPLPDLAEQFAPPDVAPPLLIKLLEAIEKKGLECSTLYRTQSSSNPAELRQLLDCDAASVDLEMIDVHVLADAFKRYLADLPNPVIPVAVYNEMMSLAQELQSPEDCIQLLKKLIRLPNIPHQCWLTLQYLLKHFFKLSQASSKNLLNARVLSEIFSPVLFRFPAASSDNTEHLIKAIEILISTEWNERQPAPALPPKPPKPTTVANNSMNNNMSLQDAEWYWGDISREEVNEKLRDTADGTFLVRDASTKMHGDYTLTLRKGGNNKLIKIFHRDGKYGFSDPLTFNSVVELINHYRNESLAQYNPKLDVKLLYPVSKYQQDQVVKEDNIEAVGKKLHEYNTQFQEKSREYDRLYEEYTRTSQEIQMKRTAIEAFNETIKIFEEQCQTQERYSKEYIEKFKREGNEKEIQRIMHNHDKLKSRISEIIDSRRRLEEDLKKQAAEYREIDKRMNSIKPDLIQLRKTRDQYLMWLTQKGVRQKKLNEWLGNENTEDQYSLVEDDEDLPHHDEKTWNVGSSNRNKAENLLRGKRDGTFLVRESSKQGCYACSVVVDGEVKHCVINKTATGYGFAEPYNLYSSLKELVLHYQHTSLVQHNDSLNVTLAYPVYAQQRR

- increase of AR/p85 association on 0.001 nM R1881 against unstimulated cells: 38%
Substance: androgen receptor (110-kD classical murine AR of NIH3T3 cells) (from UniProt P19091 1-899)
